The assay has as its target T1, CD22-Fc (UniProt P20273 20-687, limits assumed).
T1 construct: Soluble staining reagent, detected with an anti-Fc secondary antibody; not shown: Fc part
T1 sequence (looked up): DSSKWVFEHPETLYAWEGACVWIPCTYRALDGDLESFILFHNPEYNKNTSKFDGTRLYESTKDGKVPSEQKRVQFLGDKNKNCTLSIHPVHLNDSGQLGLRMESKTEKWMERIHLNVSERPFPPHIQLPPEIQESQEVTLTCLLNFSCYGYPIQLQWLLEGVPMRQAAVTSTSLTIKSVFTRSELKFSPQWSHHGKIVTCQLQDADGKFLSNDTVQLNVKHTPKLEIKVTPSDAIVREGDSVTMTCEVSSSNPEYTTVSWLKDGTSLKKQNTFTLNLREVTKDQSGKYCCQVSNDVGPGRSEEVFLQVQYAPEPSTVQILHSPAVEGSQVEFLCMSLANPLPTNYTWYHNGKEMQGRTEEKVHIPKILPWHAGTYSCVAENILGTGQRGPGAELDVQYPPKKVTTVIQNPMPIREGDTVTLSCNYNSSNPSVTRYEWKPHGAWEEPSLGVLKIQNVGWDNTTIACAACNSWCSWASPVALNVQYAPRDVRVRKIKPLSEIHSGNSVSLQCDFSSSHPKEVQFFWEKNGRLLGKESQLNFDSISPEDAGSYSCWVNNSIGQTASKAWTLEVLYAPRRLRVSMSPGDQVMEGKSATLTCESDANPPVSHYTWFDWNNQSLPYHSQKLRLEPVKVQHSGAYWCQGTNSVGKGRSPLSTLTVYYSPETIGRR
The assay is described as follows: flow cytometry of transduced JNL cells stained with CD22-Fc and anti-Fc secondary antibody. An excerpt: The Jurkat NFAT Luciferase (JNL) reporter cell line is based on the acute T cell leukemia line Jurkat. The line was modified to express luciferase under control of the Nuclear Factor of Activated T cells (NFAT) response element. For the transduction with TCARs, 400,000 JNL cells/well of a 12-well plate were transduced with a multiplicity of infection (MOI) of 1.5. Frozen virus-containing supernatant was thawed at room temperature and added to the respective wells. One well each was transduced with CD19-TCAR, CD22-TCAR, or CD19-TCAR plus CD22-TCAR (“CD19/22 dual TCAR”) at MOI=1.5 each. The plates were cultured for 6 days.
TCAR-expressing T cells were tested for their target binding capability by flow cytometry. Non-transduced (UTD), CD19-TCAR, CD22-TCAR and CD19/22 dual TCAR expressing JNL cells were tested: cells were stained with CD22-Fc for 30 min at 4° C. After a wash, cells were stained with anti-Fc secondary antibody for 30 min at 4° C. After a second wash, cells were stained with CD19-CAR anti-idiotype antibody (Ab) for 30 min at 4° C. Cells were then analyzed on a FACS LSR Fortessa after a last wash. Data was analyzed using FlowJo software. […] CD22-TCAR expressing cells bound CD22-Fc but were not stained with the CD19-CAR anti-idiotype Ab (FIG. 47C).
Background: Flow cytometry measures light scatter and fluorescence of single cells or particles in a stream.

B1: CD19scFv-G4S-CD3gECDTM-41BB (other)
chain: EIVMTQSPATLSLSPGERATLSCRASQDISKYLNWYQQKPGQAPRLLIYHTSRLHSGIPARFSGSGSGTDYTLTISSLQPEDFAVYFCQQGNTLPYTFGQGTKLEIKGGGGSGGGGSGGGGSQVQLQESGPGLVKPSETLSLTCTVSGVSLPDYGVSWIRQPPGKGLEWIGVIWGSETTYYSSSLKSRVTISKDNSKNQVSLKLSSVTAADTAVYYCAKHYYYGGSYAMDYWGQGTLVTVSSGGGGSQSIKGNHLVKVYDYQEDGSVLLTCDAEAKNITWFKDGKMIGFLTEDKKKWNLGSNAKDPRGMYQCKGSQNKSKPLQVYYRMCQNCIELNAATISGFLFAEIVSIFVLAVGVYFIAKRGRKKLLYIFKQPFMRPVQTTQEEDGCSCRFPEEEEGGCEL
notes: Chimeric membrane protein: CD19 scFv, G4S linker, CD3 gamma extracellular and transmembrane domains, 4-1BB; Expressed on JNL (Jurkat NFAT luciferase) cells by lentiviral transduction, alone or together with the CD22 TCAR (CD19/22 dual TCAR cells); also called CD19-TCAR; CD19 TCAR
With B1, the binding result is reported as “no binding”.
